Data: publication PMC7090385 (Cell Reports, 2020)

B1: recombinant APOL3 (natural protein)
chain: MDSEKKRFTEEATKYFRERVSPVHLQILLTNNEAWKRFVTAAELPRDEADALYEALKKLRTYAAIEDEYVQQKDEQFREWFLKEFPQVKRKIQESIEKLRALANGIEEVHRGCTISNVVSSSTGAASGIMSLAGLVLAPFTAGTSLALTAAGVGLGAASAVTGITTSIVEHSYTSSAEAEASRLTATSIDRLKVFKEVMRDITPNLLSLLNNYYEATQTIGSEIRAIRQARARARLPVTTWRISAGSGGQAERTIAGTTRAVSRGARILSATTSGIFLALDVVNLVYESKHLHEGAKSASAEELRRQAQELEENLMELTQIYQRLNPCHTH
modifications: biotin (EZ-Link NHS-PEG4-biotin), only where APOL3 was the bound partner (Figure 5A)

Assays:
[1] = target: recombinant NCS-1 (not myristoylated) (UniProt P62166 1-190, biotin (EZ-Link NHS-PEG4-biotin) where bound to the streptavidin sensor); test: BLI
[2] = target: T1, SID2p peptide (APOL1 G332-L392, WT) (human); test: SPR
T1 peptide: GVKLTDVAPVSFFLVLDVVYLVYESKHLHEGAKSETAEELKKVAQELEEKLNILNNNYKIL

Chain of recombinant NCS-1 (not myristoylated) (P62166 whole entry): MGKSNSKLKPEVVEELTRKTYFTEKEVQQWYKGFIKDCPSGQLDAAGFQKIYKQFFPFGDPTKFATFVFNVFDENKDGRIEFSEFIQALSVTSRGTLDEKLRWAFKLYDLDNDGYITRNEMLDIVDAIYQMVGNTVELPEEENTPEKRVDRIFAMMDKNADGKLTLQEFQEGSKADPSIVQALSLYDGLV

| Binder | Kd [1] [nM] | binding result [2] |
| --- | --- | --- |
| B1 | 36.5 ± 2.6 |  |
| LTDNEAWNGFVAAAELPRNEADELRKALDNLARQMIMK [LZ1p peptide (APOL1 L88-K125)] |  | binds |
